The subject of assay [1] is bovine degenerative disc NP cells. Nature of the assay: MTT cell viability assay. The assay is classed as cell-based. The following applies: CTGF 100 ng/ml, TGFβ1 10 ng/ml, 48 hrs-72 hrs. As for the experimental part: (§1) Nucleus pulposus cells (rat, bovine and human) were plated in 96-well flat bottom plates in order to evaluate the effect of treatment with growth factors in cell viability and proliferation assays. Rat NP cells were treated with CTGF, WISP-2 and TGFβ1 in a dose (1 ng/mL-100 ng/mL) and time dependent manner (24 hrs-96 hrs) to determine the optimum dose and time for the assessment of these growth factors on viability. Cell viability was determined using 3-(4,5-dimethylthiazol-2-yl)-2,5-diphenyltetrazolium bromide (MTT, Sigma-Aldrich, USA) as previously described^44. A BrdU-ELISA (colorimetric) assay (Cat #ab126556, Abcam) was used for determining the effect of treatment with CTGF or TGFβ1 on human and rat NP cells (healthy/injured) following the manufacturer's instructions. Briefly, NP cells were treated with CTGF or TGFβ1 alone or in combination for 48 hrs following addition of BrdU reagent O/N in each well. Incorporated BrdU in DNA of proliferating cells was determined using anti-BrdU antibody and quantified by ELISA as per the manufacturer's instructions.

The subject of assay [2] is rat-tail disc NP cells (healthy/injured). In words: MTT cell viability assay. The assay is classed as cell-based. The following applies: CTGF 100 ng/ml, TGFβ1 10 ng/ml, 48 hrs-72 hrs. As for the experimental part:
as §1

For assay [3], the system named is human degenerative disc NP cells. In words: Caspase 9 Lumi-Glo assay, cytokine induced. The assay is classed as cell-based. The settings on record: 48 hrs. As for the experimental part: Apoptosis induced in NP cells (rat and human) as result of treatment with pro-inflammatory cytokines (IL-1β and TNFα) was determined using Caspase 3/7 and Caspase 9 specific Lumi-Glo assays (Promega, Madison). Briefly, NP cells were plated and treated with either IL-1β alone or in combination with TNFα only or in presence of CTGF and TGFβ1 for 48 hrs, followed by addition of specific reagents for Caspase 3/7 and Caspase 9 as per the manufacturer's instructions. Cells were incubated for another 4 hrs at 37° C., and plates were read in a multi-well luminescence plate reader.

A further assay has as its system rat NP cells. Nature of the assay: Western blotting of rat NP cells treated with IL-1β/TNFα with or without inhibitors or growth factors. The assay is classed as cell-based. The settings on record: rat-tail NP cells treated with IL-1β and TNFα, Western blot, FIG. 5g-5h. As for the experimental part:
After euthanasia, healthy rat lumbar/caudal spine IVDs, injured tail discs and bovine caudal IVD NPs were removed aseptically and the nucleus pulposus (NP) was removed separately and enzymatically digested according to methods established by the present inventors^16. Similarly, human degenerative disc NPs were enzymatically digested using Pronase (0.4%, 1 hr at 37° C.) followed by Collagenase II treatment (0.015%, O/N, 37° C.). The following day, the cells were filtered with a 70p cell strainer and cultured within a hypoxic incubator (NuAire, MN, USA) in 3.5% O2, 5% CO2, in Advanced Dulbecco's modified Eagle's medium (ADMEM) supplemented with 8% fetal bovine serum (FBS) and penicillin and streptomycin (100 U/mL). For treatments, the cells were either cultured in serum free ADMEM (no treatment controls) or treated with interleukin-1β (IL-1β, 10 ng/mL), tumor necrosis factor-alpha (TNFα, 50 ng/mL), connective tissue growth factor (CTGF, 10-100 ng/mL), Wnt-inducible soluble protein 2 (WISP2, 10-100 ng/mL) or transforming growth factor beta 1 (TGFβ1, 5-20 ng/mL) for various time points under hypoxic conditions.
Equal amounts of whole cell or tissue lysates prepared using RIPA lysis buffer were subjected to Western blotting as described earlier^18,19. Total lysates (30 μg) were resolved on 10% sodium dodecyl sulphate-polyacrylamide gels (SDS-PAGE) under reducing conditions and then proteins were electro-transferred onto polyvinyledendifluoride (PVDF) membranes (BioRad, CA). After blocking with 5% non-fat powdered milk in Tris-buffered saline (TBS, 0.1 M, pH=7.4), blots were incubated with rabbit or goat polyclonal/mouse monoclonal primary antibodies at 4° C. overnight. […] Blots were washed three times with TTBS for 15 minutes and protein bands were detected by the enhanced chemiluminescence method (BioRad, CA) on Kodak Hyperfilm.

In assay [4] the test system is rat-tail injured disc NPs. Nature of the assay: Pre-clinical rodent needle puncture disc injury model of DDD, intra-discal injection. The assay is classed as in vivo, Wistar rat. As for the experimental part: 12-week old female Wistar rats (Charles River Laboratories International, Inc., MA, USA) were used in order to develop a pre-clinical rodent model of DDD and to evaluate the therapeutic potential of NCCM, CTGF and TGFβ1 in these pre-clinical rodent models. Experiments were performed in accordance with the Guide for the Care and Use of Laboratory Animals, and the experimental protocols were approved by the ethics approval board of Toronto Western Hospital, Toronto, ON, Canada. The surgical procedure was as follows: Anesthesia was achieved using isofluorane (5 L/min plus 1 L/min O2) and maintained at 3 L/min. Once deeply anaesthetized, the animal was affixed on a stereotactic procedure apparatus (Model 900, Kopf Instruments California USA) with nose cone inhalation. For animal experiments, the tail was shaved and prepped with isopropanol in a sterile manner. Fluoroscopy was used to visualize needle penetration and to ensure that the needle penetrated into the center of the NP. For disc injury, a 26-gauge (G), 35° beveled, 0.75 inches high needle (Hamilton Company, USA) mounted on a Hamilton syringe was used. The needle was advanced completely through the selected tail IVD to penetrate the full thickness inclusive of the annulus fibrosus on both sides of the disc. Confirmation of needle placement was made using fluoroscopy and maintained in position for 2 minutes, withdrawn halfway to the center of the NP and left there for 1 minute and then slowly withdrawn completely over a 1-minute period. The animals were then removed from the stereotactic apparatus and allowed to recover in a warmed cage. At the end of study period i.e. 72 hrs-10 weeks, animals were humanely euthanized using CO2 and each vertebral lumbar/caudal motion segment was dissected aseptically. IVDs were either fixed in formalin for histological analysis or the nucleus pulposus (healthy/injured) was harvested and lysed in RIPA buffer (50 mM Tris, pH=7.4, 150 mM NaCl, 1% NP-40 and protease inhibitor cocktail) for western blotting.
To determine the regenerative potential of NCCM, CTGF or TGFβ1, 4 IVDs per animal of 12 week old rats were injured using a 26G needle as described above. Four weeks post-injury, animals were randomized into groups of six and an intra-discal injection (˜8 μL) of either NCCM, CTGF (100 ng/mL) or TGFβ1 (10 ng/mL) was given under local anesthesia. For NCCM injected animals, the control group consisted of animals that received an intra-discal injection (˜8 μL) of Hybridoma culture medium only, while phosphate buffered saline (PBS, 1×, pH=7.2) served as control for CTGF and TGFβ1 injected animal groups. Six weeks later, the NPs from injured and control discs were harvested and either fixed in formalin for histological analysis or lysed in RIPA lysis buffer for western blotting. Each of this experiment was repeated independently to ensure reproducibility.
The tissues were fixed in 10% formalin and decalcified in 10% EDTA solution. The decalcified disc was initially split in the mid sagittal plane, embedded in paraffin and 5p thick sections were obtained for histological evaluation. Hemaetoxylin and eosin (H&E) and Safranin-O staining was performed to assess general morphology and proteoglycan content in these tissue sections as previously described^16. For immunohistochemistry/immunofluorescence (IF), paraffin-embedded sections (5 μm) of human degenerative disc NP, bovine NP, healthy canines (NCD) and rat (healthy/injured) discs were deparaffinized in xylene, hydrated in gradient alcohol followed by antigen retrieval in Tris-EDTA buffer (pH=9.0). The sections were incubated with hydrogen peroxide (0.3% v/v) in methanol for 15 minutes to quench the endogenous peroxidase activity, followed by blocking with 10% serum to preclude non-specific binding. Thereafter, the slides were incubated with either rabbit or goat polyclonal/mouse monoclonal primary antibodies overnight (O/N) at 4° C. […]

The test system of assay [5] is human degenerated disc NP cells. Nature of the assay: MTT cell viability assay. The assay is classed as cell-based. As for the experimental part:
as §1

[6] abbreviates: rat tail injured discs, western blots, FIG. 12(b).

B1: CTGF: Human recombinant connective tissue growth factor, Peprotech cat #120-19, identified in NCCM (protein, UniProt P29279 27-349, looked up)
CCN family member 2: QNCSGPCRCPDEPAPRCPAGVSLVLDGCGCCRVCAKQLGELCTERDPCDPHKGLFCHFGSPANRKIGVCTAKDGAPCIFGGTVYRSGESFQSSCKYQCTCLDGAVGCMPLCSMDVRLPSPDCPFPRRVKLPGKCCEEWVCDEPKDQTVVGPALAAYRLEDTFGPDPTMIRANCLVQTTEWSACSKTCGMGISTRVTNDNASCRLEKQSRLCMVRPCEADLEENIKKGKKCIRTPKISKPIKFELSGCTSMKTYRAKFCGVCTDGRCCTPHRTTTLPVEFKCPDGEVMKKNMMFIKTCACHYNCPGDNDIFESLYYRKMYGDMA
As to B1, the “cell viability (MTT)” value in assay [1] and in assay [2] was “increased the viability” throughout. Also, the “IL-1β and TNFα induced caspase 9 activity” value in assay [3] is reported as “significant reduction”. In addition, the “expression of MMP-3, MMP-13 and Cox2 proteins in presence of growth factor” value with rat NP cells is recorded as “reduced expression”. Also, the “aggrecan and collagen II (immunohistochemical analysis)” value in assay [4] (intra-discal injection four weeks following injury, 10 weeks post-injury, vs vehicle control) is “strong expression”. In assay [4] (intra-discal injection four weeks following injury, CTGF 100 ng/mL, TGFβ1 10 ng/mL, 10 weeks post-injury, vs PBS), the “histological analysis, Safranin-O staining of NP” value is on record as “healthy disc, rich in NCs”. The “expression of MMP-13 and Cox2 in NP tissue lysates” value in assay [4] (setting [6]) is given as “decreased expression”. Further, in assay [4] (setting [6]), the “stem cell marker Oct4 in NP tissue lysates” value was “restoration”.

B2: WISP-2: Human recombinant Wnt-inducible soluble protein 2, Peprotech, identified in NCCM (protein, UniProt O76076 24-250, looked up)
CCN family member 5: QLCPTPCTCPWPPPRCPLGVPLVLDGCGCCRVCARRLGEPCDQLHVCDASQGLVCQPGAGPGGRGALCLLAEDDSSCEVNGRLYREGETFQPHCSIRCRCEDGGFTCVPLCSEDVRLPSWDCPHPRRVEVLGKCCPEWVCGQGGGLGTQPLPAQGPQFSGLVSSLPPGVPCPEWSTAWGPCSTTCGLGMATRVSNQNRFCRLETQRRLCLSRPCPPSRGRSPQNSAF
Take B2: the “cell viability (MTT)” value in assay [2] and in assay [5] was “no significant change” in each case. Besides, in assay [3], the “IL-1β and TNFα induced caspase 9 activity” value is “significant reduction”. Besides, the “expression of MMP-3, MMP-13 and Cox2 proteins in presence of growth factor” value in the assay with rat NP cells is listed as “reduced expression”.
